Consider 1 substance from PMC13367182.

For test [1], the target named is mononucleosome with deletion of the histone H3 tail (human) (UniProt P04908). The test can be described thus: AlphaScreen or HTRF. (In general: In Alpha technology, singlet oxygen from a donor bead excites a nearby acceptor bead.)
Test [2] addresses mononucleosome with deletion of the histone H4 tail (human) (UniProt P04908). The test can be described thus: AlphaScreen or HTRF.

For “HIV-1 intasome assembled in the presence of LEDGF/p75 (from UniProt O75475 1-530) (complex)”, the decrease in the bridging signal against native nucleosomes in test [1] and in test [2] was 20% each time.
